Measured values published in US8217161B2, “Methods of inhibiting multiple cytochrome P450 genes with siRNA” (Clemson University Research Foundation, priority 2008, dated 2012).
Where two headings read alike, the source gives them in different places.

Columns and labels:
[1] = system: Cyp2b-knockdown mice; conditions: mouse, in vivo
[2] = system: Cyp2b-knockdown mice; test: Chlorpyrifos toxicity in Cyp2b-knockdown mice; type: in vivo, mouse; conditions: 10 mg/kg ip
Method: Chlorpyrifos: Similar to parathion, chlorpyrifos is an organophosphate insecticide that activates CAR, but chlorpyrifos is more toxic to wild-type mice. Initial toxicity is outwardly shown by mucous discharge from the eyes and later by reduced activity or complete lethargy, similar to other acetylcholinesterase inhibitors. Mice are injected ip with 10 mg/kg of chlorpyrifos and watched for behavioral changes. Mice showing toxicity are immediately euthanized to avoid unnecessary distress or pain. Statistical differences are determined using a Fisher's 2×2 test (StatView®, SAS Institute, Cary, N.C.).

[3] = system: Cyp2b-knockdown mice; conditions: 75 mg/kg ip, observed 30 minutes
Method: Strychnine: Strychnine is a Cyp2b-inducer (Oguri et al., Arch. Biochem. Biophys. 287:105 (1991); Yamada et al., Arch. Biochem. Biophys. 299:248 (1992)) and therefore a potential CAR agonist. Strychnine is administered ip (75 mg/kg in saline) and observed for 30 minutes. Latency time to the first convulsions and number of animals showing convulsion is noted. […] Statistical analysis is performed using Fisher's 2×2 tests.

[4] = system: Cyp2b9 mRNA; test: Q-PCR of Cyp2b9 mRNA in TCPOBOP-induced primary mouse hepatocytes transduced with lentiviral shRNA constructs; type: cell-based
Method: (§1) Q-PCR is performed to determine the efficacy of shRNA knockdown of the Cyp2b gene subfamily. Total RNA is isolated using a modified guanidinium thiocyanate-phenol-chloroform extraction protocol with TRI-reagent (Sigma, St. Louis, Mo.) according to the manufacturer's specifications followed by DNAse (Promega Corporation, Madison Wis.) treatment to remove residual genomic DNA. RNA is quantified spectrophotometrically and stored at −80° C. Reverse transcription is performed to create cDNA using MMLV-RT, a dNTP mixture, and random decamers. cDNA is stored at −20° C. Q-PCR is performed as described previously (Roling et al., Mar. Environ. Res. 57:377 (2004)). Briefly, to generate a standard curve and determine PCR efficiency, cDNA is combined and a 2×, 1:1, 1:10, 1:100, and 1:1000 dilution made. […] Amplifications are performed in triplicate using a 96-well MyiQ™ Real-Time PCR Detection System (Bio-Rad) with 0.25× SybrGreen as the fluorescent double strand-intercalating agent to quantify gene expression. The advantage of Q-PCR is having enough material to investigate a decrease of several Cyp2b isoforms as well as confirm that other P450 subfamilies are unaffected (Cyp3a, 2c).
(§2) Q-PCR results are normalized to the expression of the two housekeeping genes, β-Actin and 18S rRNA. A minimum of forty cycles is run on all real time samples to ensure a log based growth curve. Quantification is done by taking the efficiency curve of the Q-PCR reaction to the power of the threshold cycle (Ct). Samples are normalized to reference genes (β-actin and 18S rRNA) quantified for each sample. The formula for calculating normalized gene expression is NE={Eref}^Ct-ref/{Etarget}^Ct-target where NE is normalized gene expression, E is the efficiency of amplification for a particular gene, Ct is the threshold cycle, ref is the housekeeping gene (β-actin and 18S rRNA), and target is the gene of interest (Muller et al., Biotechniques 32:1372 (2002)).
(§3) The efficacy of the Cyp2b-KD2 and Cyp2b-KD3 lentiviral constructs to repress the expression of the Cyp2b subfamily members, Cyp2b9 and Cyp2b10 was tested using primary mouse hepatocytes. Primary mouse hepatocytes were plated in 6-well plates, treated with the CAR activator TCPOBOP to induce Cyp2b subfamily members (especially Cyp2b10) and then infected with either scrambled, Cyp2b-KD2 or Cyp2b-KD3 at a multiplicity of infection (MOI) of 20 and/or 5. The percentage of cells infected based on the presence of green fluorescence using fluorescent microscopy was approximately 65-80+% in KD2 transduced cells at a MOI of 5 and a about 55-70% in KD3 transduced cells at a MOI of 5.

[5] = system: Cyp2b10 mRNA; test: Q-PCR of Cyp2b10 mRNA in TCPOBOP-induced primary mouse hepatocytes transduced with lentiviral shRNA constructs; type: cell-based; conditions: for reduction of Cyp2b10 expression: MOI 20 and/or 5, vs scrambled lentivirus
Method: as §1, §2, §3

[6] = system: primary mouse hepatocytes; test: Percentage of cells infected, by green fluorescence microscopy; type: cell-based; conditions: MOI of 5
Method: as §3

[7] = TCPOBOP-treated primary mouse hepatocytes

Row | Molecule | percentage of cells infected based on green fluorescence [6] | Cyp2b9 expression relative to cells treated with the scrambled shRNA (in words) [4] | Cyp2b10 expression relative to cells treated with the scrambled shRNA (in words) [5] | reduction of Cyp2b10 expression [5, 7] | also measured
1 | CC(=O)Nc1ccc(O)cc1 [acetaminophen] | – | – | – | – | toxicity in TCPOBOP-treated mice [1]: greatest amount of toxicity
2 | CCOP(=S)(OCC)Oc1nc(Cl)c(Cl)cc1Cl [chlorpyrifos] | – | – | – | – | sensitivity as compared to wild-type mice [2]: decreased sensitivity
3 | O=C1C[C@@H]2OCC=C3CN4CC[C@]56c7ccccc7N1[C@H]5[C@H]2[C@H]3C[C@H]46 [strychnine] | – | – | – | – | protection from convulsions [3]: protection
4 | scrambled-shRNA: control shRNA construct with scrambled sequence that does not recognize any murine mRNAs (nucleic acid) GGATCCCGACGATTCGAGGCGCAGTGATTTGATATCCGATCACTGCTCCTCGAATCGTCTTTTTTCCAACTCGAG | – | – | – | – | Cyp2b9 expression relative to uninfected cells (in words) [4, 7]: did not reduce; Cyp2b10 expression relative to uninfected cells (in words) [5, 7]: did not reduce
5 | Cyp2b-KD2: lentiviral shRNA construct targeting mouse Cyp2b subfamily; siRNA sequence AAGAACACTGAGGTGTACCCC (nucleic acid) DNA: GGATCCCAAGAACACTGAGGTGTACCCCTTGATATCCGGGGGTACACCTCAGTGTTCTTTTTTTTCCAACTCGAG | 65-80% | reduced | reduced | 75-98% | reduction of Cyp2b9 expression ([4]; TCPOBOP-treated primary mouse hepatocytes, MOI 20 and/or 5, vs scrambled lentivirus): 75-98%
6 | Cyp2b-KD3: lentiviral shRNA construct targeting mouse Cyp2b subfamily; siRNA sequence CAGGAAAGCGCATTTGTCTTG (nucleic acid) DNA: GGATCCCGCAAGACAAATGCGCTTTCCTGTTGATATCCGCAGGAAAGCGCATTTGTCTTGTTTTTTCCAACTCGAG | 55-70% | not reduced | only KD2 reduced | 50% | Cyp2b9 expression relative to cells treated with the scrambled shRNA (in words) ([4]; listed as KD3): reduced
